From the DeepSol protein solubility set

Assay: soluble on expression in E. coli; label from the status in PepcDB or PDB records

Sequence | soluble on expression in E. coli
MSLRSSFRVGVTEDRNKKCRRTMEDTHAYLYNFLGNPVPSAQNDDSDQSSHPSDASPKTGELTPIVETDNGYFAIFDGHAGTFAAQWCGKKLHLILEDVMRKNINAPVPELLDQTFTSVDQQLEKLPVKNSGCTAVVALLRWEDRIPTPSSVTGSSAIGPAAVAATKAGADSKADDTPTQEAAATPVPAIPPKLREKAIRQRVLYTANVGDARVILCRNGKALRLSYDHKGSDENEGRRIANAGGLIMNNRVNGVLAVTRALGDAYIKDLVTGHPYTTETVIQPDLDEFIILASDGLWDVCSDQEAVDLIRNVSDAQEASKILVDHALARFSTDNLSCMVIRLYADREGHHHHHH | soluble
NMDVDIMSNQDEWRLYRYFIGRSKQTYARPSGSGTSTNEILQEGYYKVPIFARSRYWFNGEYWPALFEQAYANWKFPNDSKYNAILQIGGGWPEEALCELSGDSWFTSSGKLMLSSFTDLSLLNFMKSMCYSWKTIKPMVIVTPCWEPLPPMMPGIAAYH | not soluble
MSLNDLLTRRAVVAGMGVLGLGLLAGCSPARGLEFKYGKNMSNEILGRKFSLKDPQGNVRTLSSFYGSMPMVFFGFTQCPAVCPTTLARAAQIRKLLRGRDRDLFQVVFITLDPERDTPEVLDAYVKAFDPTFTALTGTPEEIAAVAKEFKVFYEKVPAGDTYTISHSSTSYVYDTRGTLRLSLGHSLNAKECAEDLVTLMEIEGHHHHHH | soluble
MSEGWNIAILGATGAVGEALLETLAERQFPVGEIYALARHESAGEHLRFGGKSVIVQDAADFDWTQAQLAFFVAGAEASAAWIDDATNAGCLVIDSSGLFALEPDVPLVVPEVNPYVLADYRNRNVIAVADSLTSQLLAALKPLIDQGGLSRIAVTSMLSASAQGKKAVDALAGQSAKLLNGIPIDEDDFFGRQLAFNMLPLLPDREGSVRQERRIVDEVRKILQDDGVMISASVVQSPVFYGHAQMVSFEALRPLAAEEAREAFSRGEDIVLSEETDYPTQVGDASGNPQLSIGCVHNDYGMPEQIQFWSVADNVRFGGALMAVKIAEKLVQEYLY | not soluble
MSAYSMLSDRIVMAKELIKRAESLSRSRKGGIEGGAKLCSKLKAELKFLQKIEAGKVAIKESHLQSTNLTHLKAIVESAENLEEVVSVLRVFGYTDTLGEKQTLVVDVVANGGHTWVKAIGRKAEALHNIWLGRGQYGDKSIIEQAEDFLQASRQQPVQYSNPHIVFAFYNSVSSPMADKLKDMGISVRGDIVAVNSLLNHPEEFQLSESESDDEGQELLQVTRVDRDNVLARVAFPTEIKVDVCKKVNLDITTLITYVSAMSYGGCHFVFKEKVLTEQAEQERKERVLPQLEAFMKDKELFACESAVKDFQSILDTLGGPGERERADVLIKRISVVPDQPSERALRLVASSKINSRSLTIFGTGDTLKAITMTANSGFVRAANNQGVKFSVFIHQPRALTESKEAFAVPLPKDLTDDSAH | not soluble
GSADAPRDRHRTIVVGGDRDYPPYEFIDQNGKPAGYNVELTRAIAEVMGMTVEFRLGAWSEMFSALKSGRVDVLQGISWSEKRARQIDFTPPHTIVYHAIFARRDSPPAAGLEDLRGRKVALHRDGIMHEYLAERGYGKDLVLTPTPADALRLLAAGGCDYAVVAMVPGMYIIRENRLTNLVPVARSIAAQRYGYAVRQGDAELLARFSEGLAILRKTGQYEAIRAKWLGVLEP | soluble
MSLKADPRGTGSRTPGTATGGKTVPTVPPAPTADRRTTVDVTALLERGRTLATPVLRAAVDRLAPPMDTVAAYHFGWIDAQGNPADGDGGKAVRPALAVLSAEVTGAAPEVGVPGAVAVELVHNFSLLHDDLMDGDEQRRHRDTVWKVHGPAQAILVGDALFALANEVLLELGTVEAGRATRRLTKASRSLIDGQAQDISYEHRDRVSVEECLEMEGNKTGALLACASSIGAVLGGADERTADTLEKYGYHLGLAFQAVDDLLGIWGDPDATGKQTWSDLRQRKKSLPVVAALAAGGAASERLGEILTADAKASDFANFSEEEFAARAALIEEAGGREWTADEARRQHTIAIEALDAVDMPDRVRDRFTALADFVVVRKREGHHHHHH | soluble
